Data: the supplement of paper PMC9170038

Test system: MS2 coat protein
Experiment: apparent KD of MS2 coat protein; higher = weaker reporter binding
Settings: Eterna round: R107
Method in brief: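 Designed RNA switches were transcribed on-chip from Illumina sequencing clusters. They were then titrated with SNAP-549-labelled MS2 coat protein (twofold steps, 0.7 or 1.5 nM to 3 µM; 0.8–1.5 h to 10–20 min per step) in 100 mM Tris-HCl pH 7.5, 80 mM KCl, 4 mM MgCl2, without or with constant ligand. Apparent KD is the per-design median of normalised cluster binding-curve fits.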

[1] = input ligand: theophylline 20 uM
[2] = input ligand: tryptophan 2.4 mM
[3] = input ligand: theophylline 2 mM

Sequence	apparent KD of MS2 coat protein (input ligand: arginine 13.2 mM)	apparent KD of MS2 coat protein [1]	apparent KD of MS2 coat protein [2]	apparent KD of MS2 coat protein (input ligand: none)	apparent KD of MS2 coat protein [3]
GGUGGGACUUGUGAUACCAGCCUAAUUCGAAUCGAAUUGCACAUGAGGAUCACCCAUGUCGGCCCUUGGCAGCAUGAGUAUUUAU [Aagexe]	0.104 µM	0.129 µM	0.255 µM		
GGUUAACAUGAGGAUCACCCAUGUCUUGAUACCAGUCGUUAUCUUGACCCUUGGCAGCAAGAUGACCGUUAGCAGCCGUCUUCUC [theeternabot_sameState_MS2_Theo_A_45]	0.0119 µM	0.0166 µM	0.0132 µM		
GGUUACUCUACGGCCGCCACUGGGCAUGUAAAUAACAUGAGGAUCACCCAUGUGGAUUAAAAUUACAGGACCGGGUAGUGUAACC [Tryptophan B 21]	0.0866 µM	0.239 µM	0.0361 µM	0.3 µM	0.345 µM
GGUUGGUGUGGAGACAUAUUGAUCACUGAAGGAGCGGGAAUAAACCCAGGUAGGUCGCAGAGAUCCACAUGAGGAUCACCCAUGU [!0.Q]	0.0808 µM	0.0689 µM	0.0362 µM	0.0402 µM	0.0866 µM
GUAACACAUGAGGAUCACCCAUGUUCCGAUACCAGUAUUGAAGAUUACCCUUGGCAGCGGGUAGGUCGGAGUGGACGGCCCGAGC [theeternabot_sameState_MS2_Theo_A_8]	0.0179 µM	0.025 µM	0.0237 µM		
GUAUAGUCUCGAAGGAGCGUCACAUGAGGAUCACCCAUGUACAUGAGGAUCACCCAUGUGUGGCAGGUAGGUCGCGAGCUAUACC [Exclusion Arginine B GF8]	0.136 µM	0.228 µM	0.312 µM	0.265 µM	0.281 µM
GUAUGGAAACAUACUAGGGUAUCAUGAGAUACCAGUACAGAAAUGUACCCUUGGCAGCUCUAGCAUACAUGAGGAUCACCCAUGU [Ex Theophylline A 6]	0.0154 µM	0.02 µM	0.012 µM		
GUCAGAACAUAUCAUGUUCUGGCACUGGAAGGAGCGAGCGAGAGCUCAGGUAGGUCGCCAGAACAUGAGGAUCACCCAUGUAAUA [(A)''-(M)'-(A)'(Arg1)-(Arg2)-(M1)-(M2)_Design11]	0.0505 µM	0.0952 µM	0.049 µM	0.0634 µM	0.296 µM
GUCAGUAGAACAGAUACCAGUCAAAAGCUGUGAUCUCAUAACAUGAGGAUCACCCAUGUUGACCCUUGGCAGCUGUGGGCGAGGG [#19 Exclusion-TheophyllineB]	0.027 µM	0.0291 µM	0.0191 µM		
GUCCUAGCGAGCGCUCGCUAGGACGCGGAUACCAGCGAGGUCCAUCGCCCUUGGCAGCCGAACAUGAGGAUCACCCAUGUCGGUA [#1 Same State - Theophylline A Attempt #16 (HarryS)]	0.0083 µM	0.0132 µM	0.00997 µM	0.0116 µM	0.0134 µM
GUCUGUGACUGAAGGAGCGACAUGAGGAUCACCCAUGUCUCCCGUUAUGGGAGUUCCUUAGGUCAGGUAGGUCGCAGUCACAGAC [#1 Exclusion - Arginine B Attempt #28 (Inspired by Omei)]	0.0714 µM	0.137 µM	0.103 µM	0.112 µM	0.152 µM
GUGGACAUGAGGAUCACCCAUGUAAGUCGGCGAGGACCGGUACGGCCGCCACUCGUGUUCUGUCUCAGCUCAAACGUAGCCGGAA [theeternabot_sameState_MS2_Trp_A_13]	0.0342 µM	0.0518 µM			0.0392 µM
GUGGAGACCUCGGCCGCCACUCUCCAUGAGGAUCUCCCAUGUAACAUGAGGAUCACCCAUGUGCUGAGGACCGGGAGGUCCUGAA [Same State Tryptophan B GF 19]	0.0157 µM	0.0134 µM	0.00955 µM	0.00947 µM	0.011 µM
GUGUACAUGAGGAUCACCCAUGUCGAGUUACGAGGACCGGUACGGCCGCCACUCGGCGGCUCGACACGGAUAGCGAUGCGUUGCU [#18 Exclusion Tryptophan A]	0.0246 µM	0.0495 µM			0.0441 µM
GUUAUAUACUCGGCCGCCACUGAGAGAGUCAUGUAAACAUGAGGAUCACCCAUGUAAUAUAUAUACAGGACCGGGAGUAUGGUAA [4.E]	0.0121 µM	0.0186 µM			0.014 µM
GUUAUAUUAAUUGAUACCAGCGAGAAAACAUGAGGAUCACCCAUGUUCGCCCAUGUUAAGCGCCCUUGGCAGCAAUUUUAUUAGC [AstrosExyTheB#2]	0.0321 µM	0.0443 µM	0.0375 µM		
GUUAUGGACCUGGAUACCAGCUGGUACAAGGGCGGUCUACAUGAGGAUCACCCAUGUGUCAGCCCUUGGCAGCCAGCAACCGGCA [Teraus]	0.00936 µM	0.0125 µM	0.00895 µM		
GUUGGACUUUCGGCCGCCACUGAGAGAGUCAUGUGAACAUGAGGAUCACCCAUGUAAUAUAUAUACAGGACCGGGAGGGUUGUAA [4.M]	0.0117 µM	0.022 µM			0.0139 µM
GUUGUAUACUCGGCCGCCACUGAGAGAGUCAUGUGAACAUGAGGAUCACCCAUGUAAUAUAUAUACAGGACCGGGAGUGUGGUAA [4.H]	0.0145 µM	0.0165 µM	0.0158 µM	0.0168 µM	0.0144 µM
UAAUCAGUGCCGGUUCUCGGAUCCUCAUGUCGAGGACCGGUACGGCCGCCACUCGAAACAUGAGGAUCACCCAUGUAAUAAUAAU [#09 Exclusion Tryptophan A]	0.0442 µM	0.116 µM			0.103 µM
UAAUCUGGUCUUCGAUAGGUGAUCCUCAAACGAGGACCGGUACGGCCGCCACUCGAUAACAUGAGGAUCACCCAUGUACGAGUGA [|T'-M'-Trp-Ms2|_Design16b]	0.0528 µM	0.155 µM	0.119 µM	0.134 µM	0.205 µM
UACAUACAUGAGGAUCACCCAUGUUGCGAUACCAGCGAAAGAGACCGCCCUUGGCAGCGCUCAUUUAGUUCCAUUCUUGAUCGAA [theeternabot_sameState_MS2_Theo_A_4]	0.0145 µM	0.0237 µM	0.0147 µM		
UACAUGAGGAUCACCCAUGUCCCAUGUGAACGAGGACCGGUACGGCCGCCACUCGACCGAGGCGGCACAUGAGGAUCACCCGCAU [whbob_SS_trypto A_2s15]	0.121 µM	0.917 µM			1.14 µM
UACAUGAGGAUCACCCAUGUGUAGAGGGAUACCAGUGACAGUAAGCACCCUUGGCAGCCCGUGAACAAAGGGUGGGCAAAAUAGU [#16 Exclusion-TheophyllineA]	0.0482 µM	0.0603 µM	0.0339 µM	0.0392 µM	0.0474 µM
UAGAAGAACAUGCGGGCUCCGGACGGUGAUACCAGAUCGAAAAGGAUCCCUUGGCAGCACUGCACAUGAGGAUCACCCAUGUGCA [theeternabot_exclusion_MS2_Theo_A_7]	0.0118 µM	0.011 µM	0.0101 µM		
UAGUCCGCGACGGCCGCCACUCGCUGAUGCACAUGUGUCCGGGACAUGAGGAUCACCCAUGUUUCGAGGACCGGGUCGAUCCUAA [Same State Tryptophan B GF 5]	0.0375 µM	0.0815 µM			0.0916 µM
UAUCCACAUGAGGAUCACCCAUGUUAGGAAGGAGCGGUGAAUGAACCAGGUAGGUCGCCUAGCUGAGGACCGUCGAUGGAUUCGU [Exclusion - Arginine A (Freestyle 16)]	0.0137 µM		0.0184 µM	0.0273 µM	0.0282 µM
UAUCUACAUGAAUAGGUUAUUCGAUUAUUUCGAGGACCGGUACGGCCGCCACUCGUUAACAUAUACAUGAGGAUCACCCAUGUUA [JR_Nu_SSTryptoA_Sub024]	0.016 µM	0.0227 µM			0.0215 µM
